According to patent US20240117012A1 (KAO, published 2024):
Like-named read-outs stand apart in the source and are kept apart here.

B1: His-tagged CoVHH-N1 (VHH)
VHH: EVQLVESGGAVVQPGGSLRLSCEASGFPFTKFWMYWVRRAPGKGLEWVAFIDTTGTITNYASSVKGRFTISRDDARNMVYLQMNDLRPEDTAIYYCATGPPGSTWVVDFHSWGQGTQVTVSS
notes: also called CoVHH-N1 (His-tagged)
B2: His-tagged CoVHH-N2 (VHH)
VHH: EVQLVESGGGSVQAGGSLTLSCAASGFTFDDHAVGWFRQAPGKGLEWVSAISGDGYTTVYADSVKGRFTISRDNAKKTVYLQMNSLKAEDTAVYYCNAFRTDIVREYWGQGTQVTVSS
notes: also called CoVHH-N2 (His-tagged)

How the values were obtained:
[1] = target: T1, SARS-CoV-2 Nucleocapsid-Fc fusion protein (SARS-CoV-2, UniProt P0DTC9 1-419); assay: CoVHH-N1
T1 construct: also called Fc-tagged N-protein

[2] = target: T1, SARS-CoV-2 Nucleocapsid-Fc fusion …
[3] = target: T1, SARS-CoV-2 Nucleocapsid-Fc fusion …; assay: CoVHH-N2

| Binder | koff [1] [s⁻¹] | kon [1] [M⁻¹ s⁻¹] | Kd [2] [nM] | Kd [3] [nM] | koff [3] [s⁻¹] | kon [3] [M⁻¹ s⁻¹] |
| --- | --- | --- | --- | --- | --- | --- |
| B1 | 0.0017 | 3.02e+06 | 0.564 |  |  |  |
| B2 |  |  |  | 2.09 | 0.0009 | 430000 |
